For 1 substance, IC50 of doxorubicin, cell viability, murine melanoma B16-F10, integrin targeted liposome-entrapped dox 90:1 and Increase (ratio of IC50 of liposome-entrapped doxorubicin to IC50 of 90:1 integrin-targeted liposomes), murine melanoma B16-F10 results are on record in patent US20090196913A1, “Anti-Alpha-V Immunoliposome Composition, Methods, and Uses” (priority 2007, published 2009).

This assay concerns the target murine αVβ3/5 integrin on the murine melanoma cell line B16-F10 (murine) (UniProt P43406). Kind of assay: cell-based or functional assay. On the set-up: IC50 of doxorubicin, cell viability, murine melanoma B16-F10, integrin targeted liposome-entrapped dox 90:1: unit not given beside the values.

murine αVβ3/5 integrin on the murine melanoma cell line B16-F10 (murine), sequence (P43406 31-1044): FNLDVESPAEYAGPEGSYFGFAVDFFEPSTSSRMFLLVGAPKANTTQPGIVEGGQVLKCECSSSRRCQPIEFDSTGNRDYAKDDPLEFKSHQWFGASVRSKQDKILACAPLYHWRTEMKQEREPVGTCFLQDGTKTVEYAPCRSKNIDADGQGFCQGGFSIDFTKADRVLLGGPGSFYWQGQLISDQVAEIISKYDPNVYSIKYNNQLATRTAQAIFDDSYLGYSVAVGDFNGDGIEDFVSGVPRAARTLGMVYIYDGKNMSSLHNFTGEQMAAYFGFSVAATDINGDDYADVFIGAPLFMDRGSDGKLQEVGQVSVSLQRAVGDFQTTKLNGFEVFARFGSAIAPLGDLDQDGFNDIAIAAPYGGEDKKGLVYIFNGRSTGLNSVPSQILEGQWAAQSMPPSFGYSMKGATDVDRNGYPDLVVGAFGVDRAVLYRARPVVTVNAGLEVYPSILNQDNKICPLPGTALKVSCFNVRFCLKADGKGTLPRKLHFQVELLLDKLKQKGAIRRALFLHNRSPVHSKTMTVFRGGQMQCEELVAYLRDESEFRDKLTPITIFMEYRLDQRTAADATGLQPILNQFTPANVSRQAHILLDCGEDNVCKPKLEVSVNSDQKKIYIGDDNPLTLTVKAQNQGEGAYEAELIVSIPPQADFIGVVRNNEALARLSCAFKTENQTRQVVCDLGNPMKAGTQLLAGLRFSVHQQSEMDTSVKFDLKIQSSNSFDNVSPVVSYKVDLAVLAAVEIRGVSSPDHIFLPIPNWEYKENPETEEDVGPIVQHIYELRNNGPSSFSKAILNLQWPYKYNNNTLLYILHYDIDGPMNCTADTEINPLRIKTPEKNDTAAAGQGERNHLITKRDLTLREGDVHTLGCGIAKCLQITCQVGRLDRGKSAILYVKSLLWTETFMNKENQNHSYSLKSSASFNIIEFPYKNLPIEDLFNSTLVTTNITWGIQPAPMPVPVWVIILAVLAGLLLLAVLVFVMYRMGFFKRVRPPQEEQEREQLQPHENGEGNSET

For “CNTO95 Fab′ (from pepsin cleavage, reduction and reoxidation) conjugated to PEG-DSPE on the surface of liposomes”, the IC50 of doxorubicin, cell viability, murine melanoma B16-F10, integrin targeted liposome-entrapped dox 90:1 is over 200 and the Increase (ratio of IC50 of liposome-entrapped doxorubicin to IC50 of 90:1 integrin-targeted liposomes), murine melanoma B16-F10 turned out to be 1.
